From publication PMC12059646, “Functional Characterization of Luciferase in a Brittle Star Indicates Parallel Evolution Influenced by Genomic Availability of Haloalkane Dehalogenase” (Molecular Biology and Evolution, 2025)
Each block holds one molecule with its values, some of them ahead of it.

How the values were obtained:
[1] = tested on: T1, AfLuc; assay: luminescence steady-state kinetics, global numerical analysis; format: biochemical, Amphiura filiformis; settings: 25 nM protein
T1 construct: codon-optimised synthetic gene in pET21b, E. coli BL21, Ni-NTA purified

[2] = substrate: Oc1ccc(Cc2nc3c(Cc4ccccc4)nc(-c4ccc(O)cc4)cn3c2O)cc1; assay: as above; format: biochemical, Renilla reniformis; settings: 25 nM protein

Km [1]: 1.21 ± 0.03 µM
Molecule: Oc1ccc(Cc2nc3c(Cc4ccccc4)nc(-c4ccc(O)cc4)cn3c2O)cc1 [coelenterazine]

B1: RLuc (Renilla reniformis) (protein)
chain: MTSKVYDPEQRKRMITGPQWWARCKQMNVLDSFINYYDSEKHAENAVIFLHGNAASSYLWRHVVPHIEPVARCIIPDLIGMGKSGKSGNGSYRLLDHYKYLTAWFELLNLPKKIIFVGHDWGACLAFHYSYEHQDKIKAIVHAESVVDVIESWDEWPDIEEDIALIKSEEGEKMVLENNFFVETMLPSKIMRKLEPEEFAAYLEPFKEKGEVRRPTLSWPREIPLVKGGKPDVVQIVRNYNAYLRASDDLPKMFIESDPGFFSNAIVEGAKKFPNTEFVKVKGLHFSQEDAPDEMGKYIKSFVERVLKNEQ
notes: codon-optimised synthetic gene in pET21b, E. coli BL21, Ni-NTA purified
Km [2]: 0.91 ± 0.05 µM | kcat [2]: 4.2 ± 0.2 s⁻¹
